# Literature values, collected in US20230090114A1, “METHODS FOR PROMOTING WEIGHT LOSS” (89BIO LTD., priority 2020, published 2023).
# Conditions: in vivo; cited from earlier work
molecule,measurement,value
"recombinant human FGF-21: recombinant human FGF-21 (SEQ ID NO: 1 is native human FGF-21) (protein, listed as Homo sapiens) MHPIPDSSPLLQFGGQVRQRYLYTDDAQQTEAHLEIREDGTVGGAADQSPESLLQLKALKPGVIQILGVKTSRFLCQRPDGALYGSLHFDPEACSFRELLLEDGYNVYQSEAHGLPLHLPGNKSPHRDPAPRGPARFLPLPGLPPALPEPPGILAPQPPDVGSSDPLSMVGPSQGRSPSYAS",half-life,1 to 2 h
